Molecular target: T1, human TRβ1ΔAB (TR DBD-LBD), thyroid hormone receptor β1 residues 102-461 (human, UniProt P10828-1 102-461)
T1 construct: Holo form (T3/TR) made by adding T3 in 3 times molar excess; also called TR DL; TRβ1 DL
T1 sequence (looked up): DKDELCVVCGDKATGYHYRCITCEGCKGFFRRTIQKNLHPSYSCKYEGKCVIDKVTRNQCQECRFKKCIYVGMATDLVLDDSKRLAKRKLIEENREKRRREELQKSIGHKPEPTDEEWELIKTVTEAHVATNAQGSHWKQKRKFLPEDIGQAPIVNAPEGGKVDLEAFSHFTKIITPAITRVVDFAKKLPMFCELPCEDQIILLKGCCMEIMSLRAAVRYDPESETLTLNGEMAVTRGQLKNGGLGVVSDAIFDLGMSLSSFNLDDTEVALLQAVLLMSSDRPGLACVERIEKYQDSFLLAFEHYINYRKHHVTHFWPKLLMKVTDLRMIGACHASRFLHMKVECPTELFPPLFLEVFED
Test: fluorescence polarisation; fluorescence anisotropy; 10nM fluorescein-labeled GATA2-Zf titrated with unlabeled, unliganded TR DBD-LBD or TR DBD, 1nM to 10.000nM; 10°C, 50mM NaCl, 20mM Hepes pH8.0, 3mM dithiothreitol, 5% glycerol
Conditions: both partners purified

- Kd: 1.17 µM
B1: fluorescein-labelled zinc finger region of GATA2 (GATA2-Zf), residues 291-412 (domain or fragment)
chain: not shown
modifications: fluorescein (fluorescein-isothiocyanate, three times molar excess; site not stated)
notes: GATA2, zinc finger region, residues 291-412; removal of the His tag is surmised from that; Two vectors are named (pET31a, pET28a(+)); also called fluorophore-labelled GATA2-Zf; fluorescein-labeled GATA2-Zf

Reference: paper PMC2935386, “Dissecting the Relation between a Nuclear Receptor and GATA: Binding Affinity Studies of Thyroid Hormone Receptor and GATA2 on TSHβ Promoter” (PLoS ONE, 2010)
